Reference: publication PMC10023570, “Essential protein P116 extracts cholesterol and other indispensable lipids for Mycoplasmas” (Nature Structural & Molecular Biology, 2023)

Legend:
[1] = biological target: P116 W681A (M. pneumoniae) (UniProt P75556); assay: SEC-MALS; Superose 6 10/300 GL column, DAWN HELEOS II MALS detector and Optilab T-REX refractive index detector
[2] = biological target: the molecule itself; assay: as above

Row | Molecule | rate of dimers to monomers (dimers:monomers) [1] | stoichiometry N [2]
1 | P116 W681A (from UniProt P75556 30-957) (domain or fragment) | 0.25 | 
2 | P116 (30–957), ectodomain of P116 (MPN_213) from Mycoplasma pneumoniae (domain or fragment, source: E. coli B834 (DE3), purified (HisTrap, Superdex 200)) NKTHQVEHESEQSDFQDIRFGLNSVKLPKAQPAAATRITVENGTDKLVNYKSSPQQLFLAKNALKDKLQGEFDKFLSDAKAFPALTADLQEWVDQQLFNPNQSFFDLSAPRSNFTLSSDKKASLDFIFRFTNFTESVQLLKLPEGVSVVVDSKQSFDYYVNASAQKLLVLPLSLPDYTLGLNYMFDHITLNGKVVNKFSFNPFKTNLNLAFSNVYNGVDVFEAQKNLVGKGKYLNTHVKAEDVKKDVNANIKNQFDIAKIIAELMGKALKEFGNQQEGQPLSFLKVMDKVKEDFEKLFNLVRPGLGKFVKDLIQSSSQAENKITVYKLIFDNKKTILNLLKELSIPELNSSLGLVDVLFDGITDSDGLYERLQSFKDLIVPAVKTNEKTAALSPLIEELLTQKDTYVFDLIQKHKGILTNLLKNFLADFQKSTPFMADQVAIFTELFDNEGAFDLFGEADFVDKIAELFLTKRTVKNGEKIETKDSLLVTSLKSLLGEKVAALGDLLDSYIFKNELLNRSVEVAKAEAKDTKGATDYKKEQAKALKKLFKHIGENTLSKTNLDKITLKEVKNTENVELEETETTLKVKKLDVEYKVELGNFEIKNGLIKAMLEFLPDTKDLETTLDKLLFKGESYKAMKDKYIKEGFPGYGWAKGVVPGAFESIENTFKSAIDKTKSIRDLFGDMLFGNDLSSVKETDSFITLGGSFDIKYGGENLNVLPAYYSLINSEIGYQIIGVDTTIDATKVKVELKNKEYKGKSPAINGQVKLSQSFFNVWTNMFDSITKQIFQKKYEFKDNIQVFARNEDNTSRLELDISDPEQRVIPFAFVDGFGIQLKAVDKNITKEAGNTEPKSPVIQLYEALNKEKDQKQQSKQSPKQLDTKTQLGYLLKLGDNWSKDDYKSLIDDTIINNNYLEASFNSKITVDRLG |  | 2
